Assay results as given in patent US9212226B2, “Amino acid sequences directed against CXCR4 and other GPCRs and compounds comprising the same” (Ablynx N.V., priority 2008, dated 2015).
Entries after “also recorded” stand apart in the source; their conditions may differ.

T1: CXCR1 (Homo sapiens, UniProt P25024)
T1 sequence (P25024 1-350): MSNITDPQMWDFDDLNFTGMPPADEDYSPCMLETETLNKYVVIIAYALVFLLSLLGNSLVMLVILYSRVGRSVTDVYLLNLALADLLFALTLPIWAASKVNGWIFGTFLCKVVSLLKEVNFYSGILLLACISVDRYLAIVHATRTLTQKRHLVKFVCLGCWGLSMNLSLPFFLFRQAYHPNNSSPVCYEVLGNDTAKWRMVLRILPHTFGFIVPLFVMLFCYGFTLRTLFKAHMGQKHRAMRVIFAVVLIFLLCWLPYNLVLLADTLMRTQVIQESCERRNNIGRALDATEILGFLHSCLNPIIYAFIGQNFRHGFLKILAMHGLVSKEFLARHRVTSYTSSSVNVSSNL

T2: CXCR2 (Homo sapiens, UniProt P25025)
T2 sequence (P25025 1-360): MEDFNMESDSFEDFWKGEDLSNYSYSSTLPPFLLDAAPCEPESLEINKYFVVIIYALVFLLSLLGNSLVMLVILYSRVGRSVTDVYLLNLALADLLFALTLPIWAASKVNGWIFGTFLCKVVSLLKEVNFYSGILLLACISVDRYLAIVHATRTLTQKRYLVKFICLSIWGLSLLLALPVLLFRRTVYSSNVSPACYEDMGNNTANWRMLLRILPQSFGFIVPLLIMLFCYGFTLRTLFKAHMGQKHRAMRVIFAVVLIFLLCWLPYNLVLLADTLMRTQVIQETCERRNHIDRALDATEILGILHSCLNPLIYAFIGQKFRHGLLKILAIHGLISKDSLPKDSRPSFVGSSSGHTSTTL

B1: 238D4: Nanobody (VHH) raised against human CXCR4, SEQ ID NO: 239 (protein)
VHH: EVQLMESGGGLVQAGGSLRLSCAASGRTFNNYAMGWFRRAPGKEREFVAAITRSGVRSGVSAIYGDSVKDRFTISRDNAKNTLYLQMNSLKPEDTAVYTCAASAIGSGALRRFEYDYSGQGTQVTVSS
modifications: Nanobody, Nanobody constructs or fragments thereof
B2: 238D2: Nanobody (VHH) raised against human CXCR4, SEQ ID NO: 238 (protein)
VHH: EVQLVESGGGLVQTGGSLRLSCAASGFTFSSYAMSWVRQAPGKGLEWVSGIKSSGDSTRYAGSVKGRFTISRDNAKNMLYLQMYSLKPEDTAVYYCAKSRVSRTGLYTYDNRGQGTQVTVSS
modifications: Nanobody, Nanobody constructs or fragments thereof

Tests used:
Format in all cases: cell-based
CCR5 = CCR5 (Homo sapiens, UniProt P51681); assay: CRE/β-galactosidase reporter gene selectivity screen, CCR5; details: up to 2.5, forskolin 3 μM, agonist at 50-80% Emax
Experimental: (§1) Data are shown as means±S.E.M. (n=2-3).
(§2) HEK293T cells were maintained at 37° C. in a humidified 5% CO2, 95% air atmosphere in Dulbecco's modified Eagle's medium (DMEM) containing 2 mM L-glutamine, 50 IU/ml penicillin, 50 μg/ml streptomycin, and 10% (v/v) fetal calf serum. Jurkat cells were cultured in a humidified 5% CO2, 95% air atmosphere in a 1:1 mixture of Dulbecco's modified Eagle's medium (DMEM) and Ham's F12 medium containing 2 mM L-glutamine, 50 IU/ml penicillin, 50 μg/ml streptomycin, and 10% (v/v) fetal calf serum. […] [^125 I]-Labelling— Radiolabeling of Nanobodies with ^125I was performed using the Iodo-gen method (Pierce, Rockford, Ill.) according to the manufacturer's protocol. ^125I-labeled Nanobodies was separated from free iodine (>99%) using a Sephadex G-25 gel filtration column (Amersham Biosciences, Piscataway, N.J.). […] Competition Binding Assays— Membranes from HEK293T cells transiently expressing CXCR3 or CXCR4 were prepared 48 h after transfection as follows. Cells were washed and scraped from the cell culture dishes with ice-cold PBS containing 1 mm EDTA. The scraped cells were pelleted at 1500×g for 10 min at 4° C. […] The total protein was determined using a Bradford assay (Bio-Rad). […] Plates were counted by liquid scintillation. […] The accumulated inositol phosphates were isolated by anion exchange chromatography and counted by liquid scintillation. […]

CXCR1 = target: T1, CXCR1; assay: CRE/β-galactosidase reporter gene selectivity screen, CXCR1; details: up to 2.5, forskolin 3 μM, agonist at 50-80% Emax
Experimental: as §1, §2

CXCR2 = target: T2, CXCR2; assay: CRE/β-galactosidase reporter gene selectivity screen, CXCR2; details: up to 2.5, forskolin 3 μM, agonist at 50-80% Emax
Experimental: as §1, §2

CXCR6 = CXCR6 (Homo sapiens, UniProt O00574); assay: CRE/β-galactosidase reporter gene selectivity screen, CXCR6; details: up to 2.5, forskolin 3 μM, agonist at 50-80% Emax
Experimental: as §1, §2

CXCR4 (N119A) = CXCR4 (N119A) (Homo sapiens, UniProt P61073, N119A); assay: Basal inositol phosphate accumulation in HEK293T cells expressing CXCR4 (N119A); details: ligand-induced alteration of basal inositol phosphate accumulation
Experimental: (§3) HEK293T cells were maintained at 37° C. in a humidified 5% CO2, 95% air atmosphere in Dulbecco's modified Eagle's medium (DMEM) containing 2 mM L-glutamine, 50 IU/ml penicillin, 50 μg/ml streptomycin, and 10% (v/v) fetal calf serum. Jurkat cells were cultured in a humidified 5% CO2, 95% air atmosphere in a 1:1 mixture of Dulbecco's modified Eagle's medium (DMEM) and Ham's F12 medium containing 2 mM L-glutamine, 50 IU/ml penicillin, 50 μg/ml streptomycin, and 10% (v/v) fetal calf serum. […] [^125 I]-Labelling— Radiolabeling of Nanobodies with ^125I was performed using the Iodo-gen method (Pierce, Rockford, Ill.) according to the manufacturer's protocol. ^125I-labeled Nanobodies was separated from free iodine (>99%) using a Sephadex G-25 gel filtration column (Amersham Biosciences, Piscataway, N.J.). […] Competition Binding Assays— Membranes from HEK293T cells transiently expressing CXCR3 or CXCR4 were prepared 48 h after transfection as follows. Cells were washed and scraped from the cell culture dishes with ice-cold PBS containing 1 mm EDTA. The scraped cells were pelleted at 1500×g for 10 min at 4° C. The pellet was washed and then resuspended in ice-cold membrane buffer (15 mM Tris, pH 7.5, 1 mM EGTA, 0.3 mM EDTA, and 2 mM MgCl2). The cell suspension was homogenized by 10 strokes at 1200 rpm using a Teflon-glass homogenizer and rotor and further subjected to three freeze-thaw cycles using liquid nitrogen. Membranes were separated by centrifugation at 40,000 g for 25 min at 4° C. The membrane pellet was washed and resuspended in ice-cold Tris-sucrose buffer (20 mM Tris, pH 7.4, and 250 mM sucrose) and frozen in liquid nitrogen. The total protein was determined using a Bradford assay (Bio-Rad). Periplasmas (1:10) or ligands were pre-incubated with membranes in binding buffer (50 mM HEPES (pH 7.4), 1 mM CaCl2, 5 mM MgCl2, 100 mM NaCl, 0.5% bovine serum albumin) supplemented with 0.5% BSA for 1 h at 22° C. before the addition of [^125I]-CXCL12 (40 pM) or [^125I]-238D2 (3 nM) or [^125I]-238D4 (3 nM) for additional 2 h at 22° C. […] Membranes were then harvested over polyethylenimine (0.5%)-treated Whatman GF/C filter plates and washed three times with ice cold binding buffer containing 500 mM NaCl. Plates were counted by liquid scintillation. Inositol Phosphate Accumulation Assay— 24 hours post transfection with pcDNA3.1-CXCR4 and pcDNA1-HA-mG {alpha} qi5 (see Verzijl et al, 2008 supra), 250.000 cells were seeded into 24-wells plates and labelled overnight using inositol-free minimal essential medium supplemented with 1 μCi myo-[2-^3H]-inositol. The next day, the cells were washed once to remove not incorporated myo-[2-^3H]-inositol. […] In agonist experiments, the cells were directly stimulated with test compounds and LiCl (10 mM) in assay buffer for 2 h at 37° C. The stimulation was stopped by aspirating the stimulation medium and adding ice-cold 10 mM formic acid. The accumulated inositol phosphates were isolated by anion exchange chromatography and counted by liquid scintillation. CRE Reporter Gene Assay— HEK239T cells were transfected with pCRE/β-galactosidase (Chen W, Shields T S, Stork P J S, Cone R D (1995) Anal Biochem 226:349-354) and plasmids (pcDEF3 or pcDNA3.1) encoding the indicated receptors. 40,000 transfected cells per well were seeded into 96 well plates and grown in DMEM supplemented with 10% fetal calf serum. The medium was replaced 32 h after transfection by serum-free DMEM supplemented with 0.5% bovine serum albumin and ligands as indicated. […]

CXCR4 = CXCR4 (Homo sapiens, UniProt P61073); assay: Inositol phosphate accumulation assay in HEK293T cells expressing CXCR4 and Gαqi5; details: for inhibition of the CXCL12-induced accumulation of inositol phosphates: CXCL12 30 nM; for agonist activity, inositol phosphate accumulation: up to a concentration of 100 nM
Experimental: as §3, with “indicated. Following 16 h of ligand incubation, the medium was removed, the cells were lysed in 100 μl of assay buffer (100 mM sodium phosphate buffer at pH 8.0, 4 mM 2-nitrophenol-β-D-pyranoside, 0.5% Triton X-100, 2 mM MgSO4, 0.1 mM MnCl2, and 40 mM β-mercaptoethanol) and incubated at room temperature.” for “indicated.”

[1] = HEK293T-CXCR4-Gαqi5/30 nM CXCL12, mean ± S.E.M.

Sequence of CCR5 (P51681 whole entry): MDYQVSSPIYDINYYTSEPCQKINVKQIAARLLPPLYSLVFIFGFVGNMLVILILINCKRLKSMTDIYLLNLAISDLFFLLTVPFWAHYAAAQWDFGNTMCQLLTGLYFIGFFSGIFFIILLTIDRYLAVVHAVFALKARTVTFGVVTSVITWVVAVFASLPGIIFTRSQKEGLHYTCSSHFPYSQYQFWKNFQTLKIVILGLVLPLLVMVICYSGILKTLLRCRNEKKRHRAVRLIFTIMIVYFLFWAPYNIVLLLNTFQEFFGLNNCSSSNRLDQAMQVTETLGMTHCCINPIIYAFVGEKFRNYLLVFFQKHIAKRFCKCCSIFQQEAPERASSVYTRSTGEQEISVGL
Sequence of CXCR6 (O00574 whole entry, species assumed): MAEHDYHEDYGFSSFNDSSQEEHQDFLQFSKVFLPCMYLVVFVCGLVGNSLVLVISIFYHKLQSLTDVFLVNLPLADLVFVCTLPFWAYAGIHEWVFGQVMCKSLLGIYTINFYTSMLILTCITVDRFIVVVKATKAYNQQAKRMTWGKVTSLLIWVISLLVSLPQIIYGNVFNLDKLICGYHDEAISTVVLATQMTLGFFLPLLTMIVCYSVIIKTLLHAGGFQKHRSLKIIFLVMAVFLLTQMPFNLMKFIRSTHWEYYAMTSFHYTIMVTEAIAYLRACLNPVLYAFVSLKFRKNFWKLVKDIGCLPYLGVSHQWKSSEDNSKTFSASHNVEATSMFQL
Sequence of CXCR4 (N119A) (P61073 whole entry N119A): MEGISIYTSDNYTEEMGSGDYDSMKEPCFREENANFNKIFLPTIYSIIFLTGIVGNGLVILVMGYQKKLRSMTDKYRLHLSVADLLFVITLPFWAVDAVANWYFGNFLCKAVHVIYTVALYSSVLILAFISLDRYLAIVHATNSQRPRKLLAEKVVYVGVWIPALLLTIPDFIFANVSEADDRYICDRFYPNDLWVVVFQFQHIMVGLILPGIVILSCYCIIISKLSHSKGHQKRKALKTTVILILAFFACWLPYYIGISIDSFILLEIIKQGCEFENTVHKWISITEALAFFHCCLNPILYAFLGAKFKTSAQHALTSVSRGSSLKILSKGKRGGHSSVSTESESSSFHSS
Sequence of CXCR4 (P61073 whole entry): as the sequence (P61073 whole entry N119A) above, with A119N counted along it

Molecule	effect on agonist-induced response at CCR5 (CCR5)	effect on agonist-induced response at CXCR1 (CXCR1)	effect on agonist-induced response at CXCR2 (CXCR2)	effect on agonist-induced response at CXCR6 (CXCR6)	functional profile at CXCR4 (N119A) (CXCR4 (N119A))	inhibition of the CXCL12-induced accumulation of inositol phosphates (CXCR4)	Imax (%), IP accumulation (CXCR4; [1])	agonist activity, inositol phosphate accumulation (CXCR4)	pKi or pIC50, IP accumulation (CXCR4; [1])
B1	do not act as agonists or antagonists; also recorded: do not alter	do not act as agonists or antagonists; also recorded: do not alter	do not act as agonists or antagonists; also recorded: do not alter	do not act as agonists or antagonists; also recorded: do not alter	inverse antagonists; also recorded: partial inverse agonists	fully inhibited	90 ± 5%	no intrinsic activity; also recorded: No agonist activity	
B2	do not act as agonists or antagonists; also recorded: do not alter	do not act as agonists or antagonists; also recorded: do not alter	do not act as agonists or antagonists; also recorded: do not alter	do not act as agonists or antagonists; also recorded: do not alter	neutral antagonist; also recorded: Neither significant agonistic nor inverse antagonistic activity	fully inhibited	86 ± 12%	no intrinsic activity; also recorded: No agonist activity	8.51 ± 0.11
